Results reported in patent US20070036810A1, “Cyclic amp response element activator proteins and uses related thereto” (priority 2003, published 2007).

B1: CREAP3: human CREAP family protein of 619 amino acids, SEQ ID NO 25; reconstructed full-length FLJ00364 cDNA (protein)
chain: MAASPGSGSANPRKFSEKIALHTQRQAEETRAFEQLMTDLTLSRVQFQKLQQLRLTQYHGGSLPNVSQLRSNASEFQPSFHQADNVRGTRHHGLVERPSRNRFHPLHRRSGDKPGRQFDGSAFGANYSSQPLDESWPRQQPPWKDEKHPGFRLTSALNRTNSDSALHTSALSTKPQDPYGGGGQSAWPAPYMGFCDGENNGHGEVASFPGPLKEENLLNVPKPLPKQLWETKEIQSLSGRPRSCDVGGGNAFPHNGQNLGLSPFLGTLNTGGSLPDLTNLHYSTPLPASLDTTDHHFGSMSVGNSVNNIPAAMTHLGIRSSSGLQSSRSNPSIQATLNKTVLSSSLNNHPQTSVPNASALHPSLRLFSLSNPSLSTTNLSGPSRRRQPPVSPLTLSPGPEAHQGFSRQLSSTSPLAPYPTSQMVSSDRSQLSFLPTEAQAQVSPPPPYPAPQELTQPLLQQPRAPEAPAQQPQAASSLPQSDFQLLPAQGSSLTNFFPDVGFDQQSMRPGPAFPQQVPLVQQGSRELQDSFHLRPSPYSNCGSLPNTILPEDSSTSLFKDLNSALAGLPEVSLNVDTPFPLEEELQIEPLSLDGLNMLSDSSMGLLDPSVEETFRADRL
modifications: human
notes: reconstructed full-length FLJ00364 cDNA
B2: CREAP2: human CREAP family protein of 693 amino acids, SEQ ID NO 16 (protein)
chain: MATSGANGPGSATASASNPRKFSEKIALQKQRQAEETAAFEEVMMDIGSTRLQAQKLRLAYTRSSHYGGSLPNVNQIGSGLAEFQSPLHSPLDSSRSTRHHGLVERVQRDPRRMVSPLRRYTRHIDSSPYSPAYLSPPPESSWRRTMAWGNFPAEKGQLFRLPSALNRTSSDSALHTSVMNPSPQDTYPGPTPPSILPSRRGGILDGEMDPKVPAIEENLLDDKHLLKPWDAKKLSSSSSRPRSCEVPGINIFPSPDQPANVPVLPPAMNTGGSLPDLTNLHFPPPLPTPLDPEETAYPSLSGGNSTSNLTHTMTHLGISRGHGPGPGYDAPGLHSPLSHPSLQSSLSNPNLQASLSSPQPQLQGSHSHPSLPASSLACHVLPTTSLGHPSLSAPALSSSSSSSSTSSPVLGAPSYPASTPGASPHHRRVPLSPLSLLAGPADARRSQQQLPKQFSPTMSPTLSSITQGVPLDTSKLSTDQRLPPYPYSSPSLVLPTQPHTPKSLQQPGLPSQSCSVQSSGGQPPGRQSHYGTPYPPGPSGHGQQSYHRPMSDFNLGNLEQFSMESPSASLVLDPPGFSEGPGFLGGEGPMGGPQDPHTFNHQNLTHCSRHGSGPNIILTGDSSPGFSKEIAAALAGVPGFEVSAAGLELGLGLEDELRMEPLGLEGLNMLSDPCALLPDPAVEESFRSDRLQ
modifications: human

Columns and labels:
Interleukin-8 promoter = assay: IL-8 promoter luciferase reporter co-transfection assay with the CREAP gene family; assay type: cell-based, human; conditions: cotransfection, relative to empty pCMV-SPORT6 vector
Text: (§1) The entire amino acid sequence for CREAP1 was used in a BLASTP search of a public NCBI database. Initially two public domain cDNAs (XM—117201 and FLJ00364) were identified that have significant homology to the CREAP1 coding region. The nucleotide sequence of XM—117201 was used in a BLASTN search (Altschul S. F. et al., Nucleic Acids Res. 25:3389-3402 (1997)) of a proprietary cDNA library EST database and 4 clones were identified that represent XM—117201 public sequence. All 4 clones were functionally tested upon co-transfection with the CRE-Luc and IL-8p-Luc reporters initially found to be induced by CREAP using methods similar to those disclosed above. Briefly, trypsinized HeLa cells are resuspended in complete growth media at 6×10^4 cells/ml and distributed into white 96-well plates (Costar) in the volume of 100 μl per well. Cells are left overnight in a tissue culture incubator at 37° C. and 5% CO2. pGL3B-IL-8p-Luc reporter plasmid or CRE-Luc reporter (BD Biosciences) as well as tested cDNAs are resuspended in OptiMEM I low serum media (GIBCO BRL) at 25 ng/ml. The reporter plasmids and cDNAs are then distributed into 96-well clean PCR plates (ABGene) at 4 μl/well and 3 μl/well respectively. […]
The activity of firefly and Renilla luciferase is measured using the DualGlo Luciferase Assay System (Promega) following the protocol supplied by the manufacturer. Briefly, 115 μl of freshly reconstituted luciferase reagent is added to each well of the 96-well tissue culture plates with a Multidrop 384 and, after 15 minutes incubation, luminescence is read on a LUMINOSKAN Ascent Luminometer (Thermo Labsystems) with a 400 msec integration time. Subsequently, 115 μl of Stop-and-Glo reagent is added to each well of the 96-well tissue culture and, after 15 minutes incubation, luminescence is read on a LUMINOSKAN Ascent Luminometer with a 200 msec integration time. The activity of each tested cDNA is measured as a ratio of the corresponding firefly and Renilla luciferase activities. […]

[1] = tested on: minimal promoter linked to multiple copies of CRE; assay: CRE-Luc reporter co-transfection assay with the CREAP gene family; assay type: cell-based; conditions: for CRE: level of expression of luciferase relative to empty vector: cotransfection, relative to empty pCMV-SPORT6 vector
Text: as §1, with “respectively. Mixture containing Fugene 6 reagent (Roche Applied Bioscience) at 1.5 μl per transfection and pRL-SV40 (Promega) plasmid 20 ng per transfection is added in the volume of 10 μl per well of the 96-well PCR plate containing prediluted cDNAs.” for “respectively.”
The activity of firefly and Renilla luciferase is measured using the DualGlo Luciferase Assay System (Promega) following the protocol supplied by the manufacturer. Briefly, 115 μl of freshly reconstituted luciferase reagent is added to each well of the 96-well tissue culture plates with a Multidrop 384 and, after 15 minutes incubation, luminescence is read on a LUMINOSKAN Ascent Luminometer (Thermo Labsystems) with a 400 msec integration time. Subsequently, 115 μl of Stop-and-Glo reagent is added to each well of the 96-well tissue culture and, after 15 minutes incubation, luminescence is read on a LUMINOSKAN Ascent Luminometer with a 200 msec integration time. The activity of each tested cDNA is measured as a ratio of the corresponding firefly and Renilla luciferase activities.
To investigate this, the ability of CREAP2 and CREAP3 to activate gene expression driven by the IL-8 promoter and a CRE-dependent promoter was tested in co-transfection assays as disclosed above. Briefly, the levels of expression of a luciferase reporter driven by either the IL-8 promoter or a minimal promoter linked to 4 copies of CRE were determined after cotransfection with either an empty pCMV-SPORT6 expression vector or with the same vector carrying a cDNA for CREAP1, CREAP2 or CREAP3. […]

GAL4-CREB fusion protein = assay: GAL4-CREB activation assay in HLR cell line; assay type: cell-based; conditions: HLR cell line with integrated pFR-Luc reporter, normalized to pCMV-BD vector
Protocol: To determine if CREAP proteins can directly activate CREB1 protein, the expression constructs of CREAP1, CREAP2 and CREAP3 were transfected individually or with GAL4-CREB plasmid (Stratagene) into HLR cell line (Stratagene) carrying genomic DNA integrated copies of pFR-Luc reporter. Briefly, HLR cells were maintained per manufacturer's instructions. Selected plasmids and either empty vector (pCMV-BD) or GAL4-CREB plasmid were transfected at 75 ng/well using Fugene6 transfection reagent (Roche) as described above. As a positive control pFC-PKA an expression construct encoding catalytic subunit of protein kinase A (Stratagene) was also co-trasfected with GAL4-CREB. Fold of activation was compared to the reporter's activity measured in the cells transfected with empty vector.
The ability of full length CREAP1, CREAP2 and CREAP3 to induce the activity of GAL4-CREB fusion protein (Stratagene) was tested. The data presented are normalized to the value seen with pCMV-BD vector. […] Note the fold induction obtained with positive control is lower when compared to the data from Table 6 when all the plasmids including the reporter were transiently transfected.

[2] = tested on: GAL4 DNA binding sites (UAS-Luc, pFR-Luc reporter); assay: GAL4 DNA binding domain fusion transactivation assay (pFR-Luc) in HEK 293 cells; assay type: cell-based; conditions: normalized to pCMV-BD vector
Text: To determine if CREAP proteins can act as a transcription activators, various regions of all 3 CREAP homologs (amino acids 300-650 of CREAP1, amino acids 296-694 of CREAP2 and amino acids 335-635 of CREAP3) were expressed as fusion proteins with the DNA binding domain of GAL4 and tested for the ability to activate expression of a reporter gene linked to GAL4 protein binding sequences (UAS-Luc (pFR-Luc reporter). Briefly, the indicated regions of CREAP1, CREAP2 and CREAP3 were amplified by PCR and subcloned in frame into pCMV-BD vector (Stratagene) encoding GAL4 DNA binding domain. Selected plasmids and empty vector (pCMV-SPORT6) were transfected into HEK 293 cells at 75 ng/well using Fugene6 transfection reagent (Roche) as described above. pFR-Luc reporter (Stratagene) encoding firefly luciferase gene driven by minimal promoter linked to 5 concatamerized GAL4 binding sites (UAS) was co-transfected at 100 ng/well. As a positive control, the reporter was also co-transfected with a plasmid encoding GAL4-CREB fusion protein (Stratagene) alone or in the presence of pFC-PKA an expression construct encoding catalytic subunit of protein kinase A (Stratagene) to activate the CREB kinase inducible activation domain. Fold induction was compared to the reporter's activity measured in the cells transfected with pCMV-BD an expression vector carrying GAL4 DNA binding domain only.
Expression constructs encoding full length CREAP1, CREAP2 and CREAP3 as well as a Gal4 DNA binding domain alone or fused with C-terminal portions of CREAP1, CREAP2 and CREAP3 were tested for the ability to induce expression of a luciferase gene controled by a minimal promoter linked to GAL4 DNA binding sites (pFRLuciferase). The data shown are normalized to the value seen with pCMV-BD vector co-transfected with pFR-Luc reporter.

Molecule	IL-8: level of expression of luciferase relative to empty vector (Interleukin-8 promoter)	higher level of induction of gene expression compared to CREAP1 and CREAP2 ([1]; CRE and IL-8 promoter reporters)	CRE: level of expression of luciferase relative to empty vector [1]	Fold Induction (GAL4-CREB fusion protein)	Fold Induction [2]
B1	574.5714	2-4 fold	71.4	2.458	1.58
B2	126.8571	–	38.6	2.435	2.47
